Measured values from the supplement of paper PMC9112550, “Optimization of the antimicrobial peptide Bac7 by deep mutational scanning” (BMC Biology, 2022).

Tested on: Escherichia coli TOP10
Test: shrunken log2 fold change of peptide-encoding DNA abundance (4.5 h post-induction vs induction); higher = less antimicrobial activity (less host growth inhibition)
Settings: time post-induction: 4.5 h; library: site-saturation at positions 5, 18, 19, 20
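Also: peptides expressed intracellularly from a pBAD plasmid library in pooled LB shake-flask culture, induced with 0.3% L-arabinose, DNA abundance read by NGS, three biological replicates, DESeq2 with apeglm shrinkage.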

Row | Sequence | shrunken log2 fold change
1 | RRIRERPPRLPRPRPRPDVGPRP | -0.59
2 | RRIRERPPRLPRPRPRPDWAPRP | 0.0306
3 | RRIRERPPRLPRPRPRPEAGPRP | 0.0425
4 | RRIRERPPRLPRPRPRPEATPRP | 0.18
5 | RRIRERPPRLPRPRPRPECEPRP | 0.318
6 | RRIRERPPRLPRPRPRPEDHPRP | -0.111
7 | RRIRERPPRLPRPRPRPEDLPRP | 0.0648
8 | RRIRERPPRLPRPRPRPEEVPRP | -0.00101
9 | RRIRERPPRLPRPRPRPEFEPRP | -0.159
10 | RRIRERPPRLPRPRPRPEFPPRP | -0.00557
11 | RRIRERPPRLPRPRPRPEFRPRP | -0.274
12 | RRIRERPPRLPRPRPRPEFWPRP | 0.159
13 | RRIRERPPRLPRPRPRPEGDPRP | 0.0441
14 | RRIRERPPRLPRPRPRPEGNPRP | 0.00934
15 | RRIRERPPRLPRPRPRPEGSPRP | 0.0172
16 | RRIRERPPRLPRPRPRPEGYPRP | -0.00062
17 | RRIRERPPRLPRPRPRPEHFPRP | -0.00973
18 | RRIRERPPRLPRPRPRPELRPRP | 0.0526
19 | RRIRERPPRLPRPRPRPEMYPRP | -0.00136
20 | RRIRERPPRLPRPRPRPENAPRP | -0.00683
21 | RRIRERPPRLPRPRPRPENLPRP | -0.226
22 | RRIRERPPRLPRPRPRPENPPRP | 0.142
23 | RRIRERPPRLPRPRPRPEQIPRP | -0.207
24 | RRIRERPPRLPRPRPRPEREPRP | 0.414
25 | RRIRERPPRLPRPRPRPERYPRP | -0.162

Row | Sequence | shrunken log2 fold change
26 | RRIRERPPRLPRPRPRPESVPRP | -0.316
27 | RRIRERPPRLPRPRPRPETEPRP | 0.192
28 | RRIRERPPRLPRPRPRPETGPRP | -0.373
29 | RRIRERPPRLPRPRPRPETNPRP | -0.000368
30 | RRIRERPPRLPRPRPRPEYSPRP | -0.422
31 | RRIRERPPRLPRPRPRPEYVPRP | -0.0151
32 | RRIRERPPRLPRPRPRPFALPRP | -0.256
33 | RRIRERPPRLPRPRPRPFAQPRP | -0.145
34 | RRIRERPPRLPRPRPRPFCNPRP | -0.366
35 | RRIRERPPRLPRPRPRPFCVPRP | -0.026
36 | RRIRERPPRLPRPRPRPFDCPRP | -0.0657
37 | RRIRERPPRLPRPRPRPFDIPRP | -0.103
38 | RRIRERPPRLPRPRPRPFEEPRP | -0.217
39 | RRIRERPPRLPRPRPRPFEGPRP | -0.105
40 | RRIRERPPRLPRPRPRPFFFPRP | 0.0253
41 | RRIRERPPRLPRPRPRPFFYPRP | -0.258
42 | RRIRERPPRLPRPRPRPFGRPRP | -0.0419
43 | RRIRERPPRLPRPRPRPFGVPRP | 0.00331
44 | RRIRERPPRLPRPRPRPFMFPRP | -0.531
45 | RRIRERPPRLPRPRPRPFMGPRP | -0.0195
46 | RRIRERPPRLPRPRPRPFNNPRP | -0.39
47 | RRIRERPPRLPRPRPRPFPQPRP | 2.37
48 | RRIRERPPRLPRPRPRPFQKPRP | -0.178
49 | RRIRERPPRLPRPRPRPFRLPRP | -0.51
50 | RRIRERPPRLPRPRPRPFRMPRP | -0.3

Row | Sequence | shrunken log2 fold change
51 | RRIRERPPRLPRPRPRPFRVPRP | -0.0333
52 | RRIRERPPRLPRPRPRPFTRPRP | -0.0106
53 | RRIRERPPRLPRPRPRPFVTPRP | -0.865
54 | RRIRERPPRLPRPRPRPFWLPRP | 0.463
55 | RRIRERPPRLPRPRPRPFWMPRP | -0.262
56 | RRIRERPPRLPRPRPRPGAIPRP | -0.187
57 | RRIRERPPRLPRPRPRPGATPRP | 0.148
58 | RRIRERPPRLPRPRPRPGCPPRP | 0.0137
59 | RRIRERPPRLPRPRPRPGDEPRP | 0.115
60 | RRIRERPPRLPRPRPRPGDLPRP | -0.0898
61 | RRIRERPPRLPRPRPRPGGNPRP | -0.442
62 | RRIRERPPRLPRPRPRPGHGPRP | -0.281
63 | RRIRERPPRLPRPRPRPGHPPRP | 0.143
64 | RRIRERPPRLPRPRPRPGIAPRP | -0.183
65 | RRIRERPPRLPRPRPRPGIGPRP | -0.0295
66 | RRIRERPPRLPRPRPRPGKLPRP | 0.162
67 | RRIRERPPRLPRPRPRPGLCPRP | 0.00687
68 | RRIRERPPRLPRPRPRPGNTPRP | -0.089
69 | RRIRERPPRLPRPRPRPGQYPRP | -0.113
70 | RRIRERPPRLPRPRPRPGTPPRP | 0.0316
71 | RRIRERPPRLPRPRPRPGVDPRP | 0.114
72 | RRIRERPPRLPRPRPRPGVKPRP | -0.0766
73 | RRIRERPPRLPRPRPRPGVRPRP | 0.125
74 | RRIRERPPRLPRPRPRPGYAPRP | -0.102
75 | RRIRERPPRLPRPRPRPHASPRP | -0.346

Row | Sequence | shrunken log2 fold change
76 | RRIRERPPRLPRPRPRPHCIPRP | -0.000243
77 | RRIRERPPRLPRPRPRPHCQPRP | 0.00361
78 | RRIRERPPRLPRPRPRPHDPPRP | -0.0577
79 | RRIRERPPRLPRPRPRPHDWPRP | -0.0393
80 | RRIRERPPRLPRPRPRPHEWPRP | -0.155
81 | RRIRERPPRLPRPRPRPHFAPRP | -0.0634
82 | RRIRERPPRLPRPRPRPHGNPRP | -0.0832
83 | RRIRERPPRLPRPRPRPHGWPRP | 0.136
84 | RRIRERPPRLPRPRPRPHITPRP | -0.99
85 | RRIRERPPRLPRPRPRPHLKPRP | -0.268
86 | RRIRERPPRLPRPRPRPHLLPRP | 0.0196
87 | RRIRERPPRLPRPRPRPHMYPRP | -0.577
88 | RRIRERPPRLPRPRPRPHPGPRP | 0.033
89 | RRIRERPPRLPRPRPRPHPPPRP | 0.16
90 | RRIRERPPRLPRPRPRPHQTPRP | -0.0225
91 | RRIRERPPRLPRPRPRPHVRPRP | -0.105
92 | RRIRERPPRLPRPRPRPHWSPRP | -0.71
93 | RRIRERPPRLPRPRPRPHYRPRP | 0.05
94 | RRIRERPPRLPRPRPRPIASPRP | 0.129
95 | RRIRERPPRLPRPRPRPICRPRP | 0.0559
96 | RRIRERPPRLPRPRPRPIDQPRP | 0.00338
97 | RRIRERPPRLPRPRPRPIEDPRP | -0.199
98 | RRIRERPPRLPRPRPRPIELPRP | -0.163
99 | RRIRERPPRLPRPRPRPIFNPRP | -0.663
100 | RRIRERPPRLPRPRPRPIGRPRP | 0.0419

Row | Sequence | shrunken log2 fold change
101 | RRIRERPPRLPRPRPRPIHQPRP | -1.22
102 | RRIRERPPRLPRPRPRPIICPRP | -0.0147
103 | RRIRERPPRLPRPRPRPILAPRP | -0.349
104 | RRIRERPPRLPRPRPRPILCPRP | -0.0244
105 | RRIRERPPRLPRPRPRPIMKPRP | -0.376
106 | RRIRERPPRLPRPRPRPIMVPRP | -0.023
107 | RRIRERPPRLPRPRPRPINDPRP | -0.223
108 | RRIRERPPRLPRPRPRPINSPRP | -0.157
109 | RRIRERPPRLPRPRPRPINTPRP | -0.351
110 | RRIRERPPRLPRPRPRPIPAPRP | -0.0833
111 | RRIRERPPRLPRPRPRPIPTPRP | 0.0239
112 | RRIRERPPRLPRPRPRPIQKPRP | -0.184
113 | RRIRERPPRLPRPRPRPIRAPRP | 0.0262
114 | RRIRERPPRLPRPRPRPIWRPRP | 0.0579
115 | RRIRERPPRLPRPRPRPIYEPRP | -0.236
116 | RRIRERPPRLPRPRPRPKGFPRP | 0.0527
117 | RRIRERPPRLPRPRPRPKGNPRP | 0.139
118 | RRIRERPPRLPRPRPRPKHAPRP | -0.0907
119 | RRIRERPPRLPRPRPRPKICPRP | 0.0135
120 | RRIRERPPRLPRPRPRPKKLPRP | -0.083
121 | RRIRERPPRLPRPRPRPKLVPRP | 0.0398
122 | RRIRERPPRLPRPRPRPKMDPRP | -0.0491
123 | RRIRERPPRLPRPRPRPKNQPRP | -0.281
124 | RRIRERPPRLPRPRPRPKPLPRP | 0.104
125 | RRIRERPPRLPRPRPRPKPQPRP | 0.309

Row | Sequence | shrunken log2 fold change
126 | RRIRERPPRLPRPRPRPKQCPRP | -0.354
127 | RRIRERPPRLPRPRPRPKRCPRP | -0.0369
128 | RRIRERPPRLPRPRPRPKRLPRP | 0.0323
129 | RRIRERPPRLPRPRPRPKRYPRP | -0.051
130 | RRIRERPPRLPRPRPRPKSCPRP | -0.00876
131 | RRIRERPPRLPRPRPRPKSGPRP | -0.136
132 | RRIRERPPRLPRPRPRPKSIPRP | -0.323
133 | RRIRERPPRLPRPRPRPKSKPRP | -0.19
134 | RRIRERPPRLPRPRPRPKTEPRP | -0.0578
135 | RRIRERPPRLPRPRPRPKVHPRP | -0.196
136 | RRIRERPPRLPRPRPRPKWAPRP | 0.0574
137 | RRIRERPPRLPRPRPRPKWCPRP | -0.0117
138 | RRIRERPPRLPRPRPRPKWDPRP | 0.953
139 | RRIRERPPRLPRPRPRPKWHPRP | -0.136
140 | RRIRERPPRLPRPRPRPKWKPRP | -0.0193
141 | RRIRERPPRLPRPRPRPKWTPRP | 0.0657
142 | RRIRERPPRLPRPRPRPKYDPRP | -0.0434
143 | RRIRERPPRLPRPRPRPLAGPRP | -0.113
144 | RRIRERPPRLPRPRPRPLCQPRP | 0.00385
145 | RRIRERPPRLPRPRPRPLDIPRP | -0.0284
146 | RRIRERPPRLPRPRPRPLECPRP | -0.498
147 | RRIRERPPRLPRPRPRPLEKPRP | 0.094
148 | RRIRERPPRLPRPRPRPLFNPRP | -0.62
149 | RRIRERPPRLPRPRPRPLGTPRP | -0.0681
150 | RRIRERPPRLPRPRPRPLHAPRP | -0.0579
